Source: paper PMC7878818, “Structural mechanism of bivalent histone H3K4me3K9me3 recognition by the Spindlin1/C11orf84 complex in rRNA transcription activation” (Nature Communications, 2021)
Values belong to the binder of their own block, whether it stands above or below them. Square brackets hold non-standard residues; d marks the D form. Ends that are not written are not given here. Me3 = trimethyl group on lysine (trimethyl-lysine); Arg(Me2a) = CN(C)C(=N)NCCC[C@H](N)C(=O)O; Lys(Me3) = C[N+](C)(C)CCCC[C@H](N)C(=O)O

What was measured:
Details in all cases: both partners purified
[1] = biological target: T1, Spindlin1 (aa: 50-262) (human); experiment: ITC; 25 °C, MicroCal ITC200; 20 mM HEPES pH 7.5, 150 mM NaCl; 0.8 mM H3 peptide injected into 50 μM protein or complex in the sample cell
T1 construct: for the ITC of 'Spindlin1' alone the limits are not restated

[2] = biological target: T2, Spindlin1 (aa: 50–262) (human, UniProt Q9Y657 50-262); experiment: crystal structure; 1:1.5 molar ratio of Spindlin1 (aa 50-262)/C11orf84 (aa 253-295) binary complex and H3K4me3K9me3 (A1-G12) peptide; hanging drop, 291 K; 1.60 Å
T2 construct: The methods describe only co-expression plasmids with C11orf84; also called Spindlin1 alone

[3] = biological target: T3, Spindlin1 (aa: 50–262)/C11orf84 (aa: 253–295) binary complex (human, UniProt Q9Y657 50-262; Q9BUA3 253-295); experiment: as above
T3 construct: This binary complex was mixed with the H3K4me3K9me3 (A1-G12) peptide for crystallisation; also called Spindlin1/C11orf84

[4] = biological target: T2, Spindlin1 (aa: 50–262); experiment: ITC; 25 °C, MicroCal ITC200; 20 mM HEPES pH 7.5, 150 mM NaCl; 50 μM Spindlin1 or Spindlin1/C11orf84 complex in the cell, 0.8 mM peptide injected
[5] = biological target: T4, Spindlin4 (human); experiment: ITC; 25 °C, MicroCal ITC200; 20 mM HEPES pH 7.5, 150 mM NaCl; 0.8 mM H3 peptide injected into 50 μM protein or complex in the sample cell
T4 construct: human Spindlin4; Construct, host and purification of the Spindlin4 used for ITC are told nowhere
T4 chain: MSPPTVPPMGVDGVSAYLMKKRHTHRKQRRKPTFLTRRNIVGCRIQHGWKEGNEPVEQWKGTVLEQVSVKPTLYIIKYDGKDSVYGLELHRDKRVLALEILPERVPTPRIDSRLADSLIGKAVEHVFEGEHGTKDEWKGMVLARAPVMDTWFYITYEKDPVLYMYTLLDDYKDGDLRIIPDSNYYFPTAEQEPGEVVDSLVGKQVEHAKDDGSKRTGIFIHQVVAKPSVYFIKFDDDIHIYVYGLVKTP

[6] = biological target: T2, Spindlin1 (aa: 50–262); experiment: anion-exchange chromatography; co-expressed Spindlin1 (aa 50-262) and C11orf84 (aa 219-305); SDS-PAGE of the peak fraction

T1 sequence (chain, as listed by the source): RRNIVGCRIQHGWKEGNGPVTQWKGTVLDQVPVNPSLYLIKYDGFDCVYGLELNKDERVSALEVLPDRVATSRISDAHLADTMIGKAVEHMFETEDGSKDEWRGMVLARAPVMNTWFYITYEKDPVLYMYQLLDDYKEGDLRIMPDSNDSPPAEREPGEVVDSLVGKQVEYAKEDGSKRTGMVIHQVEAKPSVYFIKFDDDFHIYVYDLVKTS
T2 sequence (Q9Y657 50-262): as the sequence (chain, as listed by the source) above
T3 sequence (Q9Y657 50-262, one chain of several): as the sequence (chain, as listed by the source) above

B1: H3K4me3R8me2a peptide, H3 (1-12) (peptide)
peptide: ARTK(Me3)QTAR(asymmetric Me2)KSTG
notes: histone H3 N-terminal tail, residues 1-12
Kd [1]: 170 nM
stoichiometry N [1]: 1.02

Binder: ART[Lys(Me3)]QTA[Arg(Me2a)]KSTG [H3K4me3R8me2a peptide]
fold by which the affinity for H3K4me3K9me3 is higher than for this peptide [4]: ~4 fold

B4: H3K4me3K9me3 peptide, H3 (1-12) (peptide)
peptide: ARTK(Me3)QTARK(Me3)STG
notes: histone H3 N-terminal tail, residues 1-12; also called H3K4me3K9me3 (A1-G12) peptide
stoichiometry N [1]: 1.04
Kd [5]: 41 ± 5 nM

Now from value to binder:

binding result [2]: binds
binding result [3]: binds
B2: H3K4me3K9me3 (A1-G12) peptide (peptide, UniProt P68431 2-13, looked up)
peptide: ARTK(Me3)QTARK(Me3)STG
notes: histone H3 residues A1-G12; This is the peptide of the crystal structure; also called H3K4me3K9me3 peptide; methyl histone peptide

binding result [2]: binds
B3: C11orf84 (aa: 253–295) (domain or fragment, human, UniProt Q9BUA3 253-295, looked up)
chain: TETFAAPAEVRHFTDGSFPAGFVLQLFSHTQLRGPDSKDSPKD
notes: T255-Q283 defined in the electron density; The cloning of this fragment is not described; It is named only as part of the binary complex used for crystallisation; also called C11orf84 fragment; C11orf84 segment

binding result [6]: binds
B5: C11orf84 (aa: 219–305) (domain or fragment, human, UniProt Q9BUA3 219-305, looked up)
chain: WKEPPGEEPVRKKRGRPMTKNLDPDPEPPSPDSPTETFAAPAEVRHFTDGSFPAGFVLQLFSHTQLRGPDSKDSPKDREVAEGGLPR
